Source: paper PMC5645109 (PLoS ONE, 2017)

Molecular target: T1, Torpedo nAChR (extract from the electric organ of Torpedo californica) (Tetronarce californica (Torpedo …, UniProt P02710;P02712;P02714;P02718))
T1 construct: acetylcholine receptor α-subunit, Torpedo californica; acetylcholine receptor β-subunit, Torpedo californica; acetylcholine receptor γ-subunit, Torpedo californica; acetylcholine receptor δ-subunit, Torpedo californica; also called torpedo AChR antigen; source: extract of the electric organ of Torpedo californica (gift, University of Nagasaki); copies: + + +
T1 sequence (P02718 whole entry, looked up, chain 1 of 4): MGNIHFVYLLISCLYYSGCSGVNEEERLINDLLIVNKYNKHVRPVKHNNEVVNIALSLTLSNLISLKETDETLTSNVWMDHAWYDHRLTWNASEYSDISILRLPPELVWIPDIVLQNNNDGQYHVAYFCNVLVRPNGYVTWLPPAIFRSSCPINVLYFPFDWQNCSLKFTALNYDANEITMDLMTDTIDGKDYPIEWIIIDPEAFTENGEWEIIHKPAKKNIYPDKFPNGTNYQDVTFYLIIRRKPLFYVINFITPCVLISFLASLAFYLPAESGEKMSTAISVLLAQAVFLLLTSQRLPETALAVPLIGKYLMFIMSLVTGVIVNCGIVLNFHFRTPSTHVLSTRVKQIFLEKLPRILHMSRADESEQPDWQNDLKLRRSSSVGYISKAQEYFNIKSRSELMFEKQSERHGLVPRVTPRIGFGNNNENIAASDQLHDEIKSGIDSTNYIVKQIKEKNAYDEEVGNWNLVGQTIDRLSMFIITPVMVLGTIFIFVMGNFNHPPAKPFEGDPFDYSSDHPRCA
T1 sequence (P02714 whole entry, looked up, chain 2 of 4): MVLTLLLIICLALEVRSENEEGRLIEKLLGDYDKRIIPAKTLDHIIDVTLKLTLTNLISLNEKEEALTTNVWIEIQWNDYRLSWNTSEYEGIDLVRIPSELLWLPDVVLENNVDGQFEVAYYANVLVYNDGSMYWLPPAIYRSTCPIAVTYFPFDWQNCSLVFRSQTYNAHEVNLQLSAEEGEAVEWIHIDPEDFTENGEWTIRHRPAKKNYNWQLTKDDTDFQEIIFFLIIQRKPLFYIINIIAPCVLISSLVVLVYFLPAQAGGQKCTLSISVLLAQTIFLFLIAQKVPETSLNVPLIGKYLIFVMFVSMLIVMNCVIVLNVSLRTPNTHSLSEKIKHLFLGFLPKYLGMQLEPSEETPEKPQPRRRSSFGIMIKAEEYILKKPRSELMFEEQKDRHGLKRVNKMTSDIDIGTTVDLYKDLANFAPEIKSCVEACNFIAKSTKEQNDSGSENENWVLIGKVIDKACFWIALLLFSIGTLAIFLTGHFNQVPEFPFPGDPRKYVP
T1 sequence (P02712 whole entry, looked up, chain 3 of 4): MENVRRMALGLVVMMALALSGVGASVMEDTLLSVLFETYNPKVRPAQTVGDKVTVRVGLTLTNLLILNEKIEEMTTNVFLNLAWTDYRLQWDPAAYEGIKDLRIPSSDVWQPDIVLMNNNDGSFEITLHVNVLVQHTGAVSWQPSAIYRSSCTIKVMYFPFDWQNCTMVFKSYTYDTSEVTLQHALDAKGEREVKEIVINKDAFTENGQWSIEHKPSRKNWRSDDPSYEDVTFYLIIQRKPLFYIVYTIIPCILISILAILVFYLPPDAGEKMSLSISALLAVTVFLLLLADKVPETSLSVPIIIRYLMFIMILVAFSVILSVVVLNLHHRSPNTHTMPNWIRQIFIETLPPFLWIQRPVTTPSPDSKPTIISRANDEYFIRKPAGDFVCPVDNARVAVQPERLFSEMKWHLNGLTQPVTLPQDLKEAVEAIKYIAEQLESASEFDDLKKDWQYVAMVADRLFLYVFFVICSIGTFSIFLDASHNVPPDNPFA
T1 sequence (P02710 whole entry, looked up, chain 4 of 4): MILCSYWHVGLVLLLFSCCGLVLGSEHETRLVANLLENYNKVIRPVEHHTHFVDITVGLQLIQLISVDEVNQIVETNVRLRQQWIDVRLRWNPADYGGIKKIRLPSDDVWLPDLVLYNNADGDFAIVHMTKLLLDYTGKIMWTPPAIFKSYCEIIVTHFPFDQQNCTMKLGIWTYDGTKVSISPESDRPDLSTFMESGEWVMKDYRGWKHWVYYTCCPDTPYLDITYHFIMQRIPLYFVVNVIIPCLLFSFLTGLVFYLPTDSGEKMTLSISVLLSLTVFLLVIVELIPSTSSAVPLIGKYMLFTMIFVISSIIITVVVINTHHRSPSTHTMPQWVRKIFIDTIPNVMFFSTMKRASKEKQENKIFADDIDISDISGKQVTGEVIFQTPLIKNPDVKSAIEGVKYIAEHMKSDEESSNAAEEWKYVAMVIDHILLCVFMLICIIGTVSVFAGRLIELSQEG
Assay: radio immunoprecipitation assay; extract of the electric organ of Torpedo californica or extract of rat sciatic nerve as antigen; relative binding affinity; method of ref. 54
Conditions: one partner purified

binding result: binds
B1: rat mAb35, anti-nAChR main immunogenic region antibody (rat IgG1) (antibody, V domains shown)
VH: EVQLQESGPGLVQPSETLSLTCTVSGFSLTSYSVSWLRQPSGKGPEWMGRMWDDGGTVYNSGLKSRLSISRDTSKNQVFLKMNSLQTDDTGTYYCTRDERIRAINWFAYWGQGTLVTVSS
VL: DIVITQSPSLLSASVGDRVTLTCKGSQNIDNYLAWYQQKLGEAPKLLIYKTNSLQTGIPSRFSGSGSGTDYTLTISSLHSEDLATYYCYQYINGYTFGTGTKLELK
notes: heavy chain of rat mAb35 (rat IgG1); light chain of rat mAb35; the hybridoma clone is named for the cDNA; also called mAb35 (rat); source: rat Hybridoma
